In patent US20220275059A1 (HARBOUR ANTIBODIES, published 2022):
“And” between values parts separate entries of the source, which are not always exact repeats. Equal values may be shown once.

Legend:
[1] = target: T1, MERS-S on pseudotyped VSV particles (MERS-S carrying a 16-a.a. cytoplasmic tail truncation) (MERS-CoV, UniProt K9N5Q8 18-1337); assay: cell-based or functional assay
[2] = target: T1, MERS-S on pseudotyped VSV particles …; assay: cell-based or functional assay; remark: listed apart in the source
[3] = target: T2, MERS-CoV S S1 subunit (MERS-S1) (MERS-CoV EMC isolate, UniProt K9N5Q8 19-748); assay: ForteBio Octet kinetic measurement (FIG. 3A)
MERS-S1^A domain = target: T3, MERS-S1^A domain (MERS-CoV EMC isolate, UniProt K9N5Q8 19-357); assay: ELISA on coated MERS-S1^A, OD450 [D]
T3 sequence: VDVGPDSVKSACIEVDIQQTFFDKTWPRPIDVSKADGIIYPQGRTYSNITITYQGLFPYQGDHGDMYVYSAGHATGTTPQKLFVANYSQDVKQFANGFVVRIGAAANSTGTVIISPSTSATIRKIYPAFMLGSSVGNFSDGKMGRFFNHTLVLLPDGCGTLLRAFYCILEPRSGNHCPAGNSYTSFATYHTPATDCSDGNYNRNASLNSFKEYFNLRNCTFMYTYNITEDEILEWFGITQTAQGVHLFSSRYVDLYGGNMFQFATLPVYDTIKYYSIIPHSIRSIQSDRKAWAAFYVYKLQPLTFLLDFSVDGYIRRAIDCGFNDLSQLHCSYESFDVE

SARS-CoV spike protein = SARS-CoV spike protein (SARS-CoV, UniProt P59594 15-1182); assay: ELISA on SARS Secto
peptide 10 = assay: ELISA on coated overlapping MERS-S2 peptides, A450 [D00032 Fig. 14(B]
peptide 11 = assay: as above
[4] = target: T2, MERS-CoV S S1 subunit (MERS-S1); assay: ELISA on coated MERS-S1, OD450 [D]
[5] = target: MERS-S1^B domain (receptor binding domain) (MERS-CoV EMC isolate, UniProt K9N5Q8 358-588); assay: ELISA on coated MERS-S1^B, OD450 [D]
[6] = target: MERS-S2 ectodomain (MERS-S2^ecto) (MERS-CoV EMC isolate, UniProt K9N5Q8 752-1262)
[7] = target: T2, MERS-CoV S S1 subunit (MERS-S1); assay: affinity measurement of HCAbs (method not told)
[8] = target: T2, MERS-CoV S S1 subunit (MERS-S1); assay: ForteBio Octet / BLI (FIG. 2F and 3A)

B1: 1.2g5 (antibody, V domains shown)
VH: QVQLVQSGAEVKKPGSSVKVSCKASGGTFSTYAISWVRQAPGQGLEWMGGIIPIFGTANYAQKFQGRVTIIADKSTNTAYMDLSSLRSEDTAVYYCAREGNLGYDVVTGYSYFVYWGQGTLVTVSS
VL: EIVLTQSPGTLSLSPGERATLSCRASQSVSSSYLAWYQQKPDQVPRLLIYGTSSRATGIPDRFSGSGSGTDFTLTISRLEPEDFAVYYCQQYGRSLTFGGGTKVEIKR
IC50, neutralisation of MERS-S VSV pseudovirus on Vero cells [1]: 0.002 µg/ml and 0.013 nM
IC50, neutralization of MERS-S pseudovirus infectivity (H2L2) [2]: ~0.62 ng/mL
IC50, neutralization of MERS-S pseudovirus infectivity (human IgG1) [2]: ~0.007 µg/mL
Kd [3]: ~0.081 nM
binding result (MERS-S1^A domain): no binding (tested: about 5x10^5 ng/ml)

B2: 2.6h11 (antibody, V domains shown)
VH: EVQLVESGGGLVQPGRSLRLSCTASGFTFGDYVMSWFRQAPGKGLEWVGFIRSKAHGGTTEYAASVNGRFSISRDDSKTIAYLQMNSLKSEDTAVYYCTWLRNDYYYGMDVWGLGTTVTVSS
VL: DIMMTQSPLSLPVTPGEPASISCRSSQRLLHSNGYSYVDWYLQKPGQSPQLLIYLGSDRASGVPDRFSGSGSGTDFTLKISRVEAEDVGVYYCMQTLQTPWTFGQGTKVEIKR
binding result (SARS-CoV spike protein): no binding (tested: 25.00 (no unit printed))
binding result (peptide 10): no binding
binding result (peptide 11): no binding

B3: 3.5g6 (antibody, V domains shown)
VH: QVQLQQSGPGLVKPSQTLSLTCAISGHSVSSNSADWNWIRQSPSRGLEWLGRTYCRSKCYNDYAVSVKSRITINPDTSKNQFSLQLNPVTPEDTAVYYCARSLGSGTYPFDSWGQGTLVTVSS
VL: DIQMTQSPSSLSASVGDRVTITCRASQRISRFLNWYQQTPGKAPKFLIYAASSLQSGVPSRFSGSGSGTDFTLTISSLQPEDFATYYCQQSYSTPLTFGGGTTVEIKR
IC50, neutralisation of MERS-S VSV pseudovirus on Vero cells [1]: 2.49 µg/mL
binding result [4]: no binding (tested: about 5x10^5 ng/ml)
binding result [5]: no binding (tested: about 5x10^5 ng/ml)
IC50, MERS-S pseudovirus (human IgG1) [2]: 16.6 nM
binding result (SARS-CoV spike protein): no binding (tested: 25.00 (no unit printed))
binding result (MERS-S1^A domain): no binding (tested: about 5x10^5 ng/ml)
EC50 (read off the curve) [6]: ~200 ng/mL

B4: 1E10 heavy chain-only antibody (antibody, V domains shown)
VH: EVQLLESGGGWVQPGGSLRLSCAASGFTFSTNAMSWVRQAPGKGLEWVSGISGSGGSTDYADSVKGRFTISRDNSKNTLYLQMNSLRAEDTAVYYCAPRIAVAPDALDIWGQGTMVTVSS
Kd [7]: 1 nM

B5: 4.6e10 (antibody, V domains shown)
VH: QVQLVESGGGVVQPGRSLRLSCTASGFTFTYYGLHWVRQAPGKGLEWVAVIWYDGSNQYYADSVQGRFTISRDNSKNTLYLQMNSLRAEDTAVYYCAREGLGAVAGYYFDYWGQGTLVTVSA
VL: DIQMTQSPSSLSASVRDRVTITCRASQIISNYLNWYQQKPGKAPKLLIYAASSLQSGVPSRFSGSGSGTDFTLTISSLQPEDFATYFCQQSYSTPFAFGPGTKVDIKR
IC50, neutralisation of MERS-S VSV pseudovirus on Vero cells [1]: 0.048 µg/mL
Kd [8]: ~0.36 nM
IC50, MERS-S pseudovirus infection (human IgG1) [2]: 0.32 nM
IC50, neutralization of MERS-S pseudovirus infectivity (H2L2) [2]: ~31.3 ng/mL
IC50, neutralization of MERS-S pseudovirus infectivity (human IgG1) [2]: ~0.07 µg/mL
binding result (MERS-S1^A domain): no binding (tested: about 5x10^5 ng/ml)

B6: 1.6f9 (antibody, V domains shown)
VH: QVQLVQSGAEVKKPGSSVKVSCKASGGAFSAYVITWVRQAPGQGLEWMGGIIPVFGTAHYAQKFQGRVTITADKSTSTAFMELSSLRSEDTAVYYCAREGDIEVVLAGRGYFDYWGQGTLVTVSS
VL: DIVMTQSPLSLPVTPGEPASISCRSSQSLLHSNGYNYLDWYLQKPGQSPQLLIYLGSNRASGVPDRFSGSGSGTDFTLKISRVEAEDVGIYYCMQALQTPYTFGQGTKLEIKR
IC50, neutralisation of MERS-S VSV pseudovirus on Vero cells [1]: 0.006 µg/ml and 0.04 nM
IC50, neutralization of MERS-S pseudovirus infectivity (H2L2) [2]: ~0.38 ng/mL
IC50, neutralization of MERS-S pseudovirus infectivity (human IgG1) [2]: ~0.019 µg/mL
Kd [3]: ~0.53 nM
binding result (MERS-S1^A domain): no binding (tested: about 5x10^5 ng/ml)

B7: 1.10f3 (antibody, V domains shown)
VH: QVQLVESGGGVVQPGRSLRLSCKASGFTFRGYGMHWVRQAPGKGLEWVTVIWHDASNKYYVDSVKGRFSISRDNSKNTLYLQMNSLRAEDTAVYYCARDAGLSFDIWGQGTMVTVSS
VL: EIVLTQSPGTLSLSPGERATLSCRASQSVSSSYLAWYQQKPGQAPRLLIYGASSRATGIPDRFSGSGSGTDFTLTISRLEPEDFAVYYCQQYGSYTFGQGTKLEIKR
IC50, neutralisation of MERS-S VSV pseudovirus on Vero cells [1]: > 10 µg/ml and > 66.7 nM
EC50 (read off the curve) [4]: ~100 ng/mL
binding result [5]: no binding (tested: about 5x10^5 ng/ml)
Kd [3]: ~4.8 nM
EC50 (read off the curve) (MERS-S1^A domain): ~70 ng/mL

B8: 1.17f10 (antibody, V domains shown)
VH: QVQLVESGGGVVQPGRSLRLSCAASGFTFSKYGMHWVRQAPGKGLEWVANIGYDGSDKYYADSVKGRFTISRDNSKNMLYLQMNSLRAEDTAVYFCARGGWIDDYYYGLDVWGQGTTVTVSS
VL: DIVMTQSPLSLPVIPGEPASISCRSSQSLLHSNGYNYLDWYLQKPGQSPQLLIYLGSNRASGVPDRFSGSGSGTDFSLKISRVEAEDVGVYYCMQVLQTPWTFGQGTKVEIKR
binding result (SARS-CoV spike protein): no binding (tested: 25.00 (no unit printed))

B9: 1.12g2 (antibody, V domains shown)
VH: QVQLVESGGGVVQPGRSLRLSCAASGFTFSSYGMHWVRQAPGKGLEWVAVICYDGSDKYYTDSVRGRFTISRDNSKNTLYLQMNSLRVEDTAMYFCARGGWIDDYYYGMDVWGQGTTVTVSS
VL: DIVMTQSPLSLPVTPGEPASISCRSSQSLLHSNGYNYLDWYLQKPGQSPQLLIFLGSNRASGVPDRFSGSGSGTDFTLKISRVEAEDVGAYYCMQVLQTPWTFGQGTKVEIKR
binding result (SARS-CoV spike protein): no binding (tested: 25.00 (no unit printed))

B10: 1.5d6 (antibody, V domains shown)
VH: QVQLVESGGGVVQPGRSLRLSCAASGFTFSRYGMHWVRQAPGKGLEWVAVIGYDGSNKYYADSVKGRFTISRDNSKNTLSLQMNSLRAEDTAVYYCARGGWNDDYYYGLDVWGQGTTVTVSS
VL: DIVMTQSPLSLPVIPGEPASISCRSSQSLLHSNGYNYLDWYLQKPGQSPQLLIYLGSNRASGVPDRFSGSGSGTDFTLKISIVEAEDAGVYYCMQVLQTPWTFGQGTKVEIKR
binding result (SARS-CoV spike protein): no binding (tested: 25.00 (no unit printed))

B11: 7.7g6 (antibody, V domains shown)
VH: QVQLVQTGAEVKKPGSSVKVSCKASGGTFSIYAISWVRQAPRQGLEWMGGIIPIFGTANYAQKFQGRVTITADKSTNTAYMELSRLRSEDTAVYYCAREGDDVLVPTSRGFFDYWGQGTLVTVSS
VL: not shown
IC50, neutralisation of MERS-S VSV pseudovirus on Vero cells [1]: 0.001 µg/ml and 0.007 nM
EC50 (read off the curve) [4]: ~20 ng/mL
EC50 (read off the curve) [5]: ~20 ng/mL
IC50, neutralization of MERS-S pseudovirus infectivity (H2L2) [2]: ~0.11 ng/mL
IC50, neutralization of MERS-S pseudovirus infectivity (human IgG1) [2]: ~0.02 µg/mL
Kd [3]: ~0.36 nM
binding result (MERS-S1^A domain): no binding (tested: about 5x10^5 ng/ml)

B12: 1.8e5 (antibody, V domains shown)
VH: QVQLQESGPGLVKPSGTLSLTCAVSGGSISSNRWWTWVRRSPGKGLEWIGEIYHSGSTNYNPSLKSRVTISVDRSKNQFSLKLSSVTAADTAVYYCASLTLIWFGEKAFDIWGQGTMVTVSS
VL: EIVMTQSPATLSVSPGERATLSCGASPSVSTNLAWYQQRPGQAPRLLIYGISTRAAGIPARFSGTGSGTEFTLTISSLQSEDFALYYCQQYNNWPYTFGQGTKLEIKR
IC50, neutralisation of MERS-S VSV pseudovirus on Vero cells [1]: 1.5 µg/mL
Kd [8]: ~0.32 nM
IC50, MERS-S pseudovirus infection (human IgG1) [2]: 10 nM
IC50, neutralization of MERS-S pseudovirus infectivity (H2L2) [2]: ~90.3 ng/mL
IC50, neutralization of MERS-S pseudovirus infectivity (human IgG1) [2]: ~2.59 µg/mL
binding result (MERS-S1^A domain): no binding (tested: about 5x10^5 ng/ml)

B13: 1H5 heavy chain-only antibody (antibody, V domains shown)
VH: EVQLVESGGGLVQPGGSLRLSCAASGFTFSSYWMLWVRQAPGEGLVWVSRIDSDGSNTTYADSVKGRFTVSRDNAKNTLYLQMNSLRAEDTAVYYCARSGYGYAFDIWGQGTMVTVSS
Kd [7]: 10.9 nM

B14: 1G3 heavy chain-only antibody (antibody, V domains shown)
VH: EVQLVESGGGVVQPGRSLRLSCAASGFTFSSYGMHWVRQAPGKGLEWVAVIWYDGSNKYYADSVKGRFTISRDNSKNTLYLQMNSLRAEDTAVYYCARDERIFGVPDAFDIRGQGTMVTVSS
Kd [7]: 21.7 nM

B15: 1.13a9 (antibody, V domains shown)
VH: EVQLVESGGGLVQPGGSLRLSCAASGFTFSNYWMTWVRQAPGKGLEWVANIKEDGSEKYYVDSVKGRFTLSRDNAKNSLYLQMNSLRAEDTAVYYCAKEGALLWFGVLRPRAFDIWGQGTMVTVSS
VL: DIVMTQSPLSLPVTPGEPASISCRSSQSLLHSNGYNYLDWYLQNPGQSPHLLIYLASNRASGVPDRFSGSGSGTDFTLKISRVEAADVGVYYCMQALQTPYTFGQGTKLEIKR
binding result (SARS-CoV spike protein): no binding (tested: 25.00 (no unit printed))
